Drawing on the Immune Epitope Database (IEDB), this text covers Kd and IC50 for 25 sequences.

Assay [1] concerns the target HLA-A*01:01. Briefly: IEDB peptide-MHC binding, purified MHC/competitive/radioactivity; filed as Kd, often an IC50 or EC50 that approximates it; ≥ and ≤ were set here for values at or beyond the usual limits of such assays.
Assay [2] has as its target HLA-A*30:02. Described as above.
For assay [3], the target named is HLA-A*26:01. The description is as above.
The target of assay [4] is HLA-A*30:01. Described as above.
The target in assay [5] is HLA-A*32:01. Described as above.
Assay [6] concerns the target HLA-A*29:02. The description is as above.
Assay [7] has as its target HLA-A*24:02. Briefly: IEDB peptide-MHC binding, purified MHC/competitive/fluorescence; ≥ and ≤ were set here for values at or beyond the usual limits of such assays.
The target in assay [8] is HLA-A*02:01. As to the kind of experiment: IEDB peptide-MHC binding, purified MHC/direct/fluorescence; filed as Kd, often an IC50 or EC50 that approximates it; ≥ and ≤ were set here for values at or beyond the usual limits of such assays. The following applies: source organism: Giardia lamblia ATCC 50803.
For assay [9], the target named is HLA-A*01:01. The assay is described as above. Conditions: source organism: Giardia lamblia ATCC 50803.
The target in assay [10] is HLA-B*15:01. Described as above. The following applies: source organism: Giardia lamblia ATCC 50803.
The target of assay [11] is HLA-B*27:05. The assay is described as above. Conditions: source organism: Giardia lamblia ATCC 50803.
Assay [12] has as its target HLA-B*58:01. The description is as above. The following applies: source organism: Giardia lamblia ATCC 50803.
The target of assay [13] is HLA-B*07:02. The description is as above.
For assay [14], the target named is HLA-A*03:01. Described as above. Conditions: source organism: Giardia lamblia ATCC 50803.
Assay [15] has as its target HLA-A*02:01. Briefly: IEDB peptide-MHC binding, purified MHC/competitive/fluorescence; ≥ and ≤ were set here for values at or beyond the usual limits of such assays. The following applies: source organism: Zaire ebolavirus.
The target of assay [16] is HLA-A*02:01. As to the kind of experiment: IEDB peptide-MHC binding, purified MHC/competitive/radioactivity; filed as Kd, often an IC50 or EC50 that approximates it; ≥ and ≤ were set here for values at or beyond the usual limits of such assays.
The target in assay [17] is HLA-A*02:01. As to the kind of experiment: IEDB peptide-MHC binding, purified MHC/competitive/fluorescence; filed as Kd, often an IC50 or EC50 that approximates it; ≥ and ≤ were set here for values at or beyond the usual limits of such assays.
The target in assay [18] is HLA-A*02:06. Briefly: IEDB peptide-MHC binding, purified MHC/competitive/radioactivity; filed as Kd, often an IC50 or EC50 that approximates it; ≥ and ≤ were set here for values at or beyond the usual limits of such assays. Conditions: source organism: Vaccinia virus WR.
In assay [19] the target is HLA-A*02:03. The description is as above. The following applies: source organism: Vaccinia virus WR.
Assay [20] concerns the target HLA-B*35:01. The assay is described as above. Conditions: source organism: Dengue virus 1 Singapore/S275/1990.
Assay [21] addresses HLA-B*39:01. Briefly: IEDB peptide-MHC binding, purified MHC/competitive/fluorescence; filed as Kd, often an IC50 or EC50 that approximates it; ≥ and ≤ were set here for values at or beyond the usual limits of such assays. Conditions: source organism: Escherichia coli str. K-12 substr. MG1655.
Assay [22] addresses HLA-A*69:01. As to the kind of experiment: IEDB peptide-MHC binding, purified MHC/direct/fluorescence; filed as Kd, often an IC50 or EC50 that approximates it; ≥ and ≤ were set here for values at or beyond the usual limits of such assays. Conditions: source organism: Homo sapiens.
Assay [23] addresses HLA-A*02:02. Briefly: IEDB peptide-MHC binding, purified MHC/competitive/radioactivity; filed as Kd, often an IC50 or EC50 that approximates it; ≥ and ≤ were set here for values at or beyond the usual limits of such assays. Conditions: source organism: Vaccinia virus WR.
Where [24] appears, read: source organism: Lymphocytic choriomeningitis virus (strain Armstrong).
Where [25] appears, read: source organism: Zaire ebolavirus.
Setting [26] is: source organism: Mammarenavirus lassaense.
Setting [27] is: source organism: Mammarenavirus brazilense.
Where [28] appears, read: source organism: Lassa virus Josiah.
The mark [29] stands for this setting: source organism: Mammarenavirus guanaritoense.

pIC50, pKd: −log10 of the molar value.

Consider DLMGVPYCNY, for which the negative-log Kd (pKd) – broadly, the Kd on a negative log10 scale, so that one unit is a factor of ten – in assay [1] (setting [24]) was 5.34; in assay [2] (setting [24]) it was 6.26; in assay [3] (setting [24]), 6.79; in assay [4] (setting [24]), no more than 4.17; in assay [5] (setting [24]), no more than 4.28; in assay [6] (setting [24]), 6.83.
Regarding SSKYYIKNI, the negative logarithm of the IC50 (pIC50) (in general, −log10 of the IC50, conventionally taken in molar units) in assay [7] (source organism: Vaccinia virus) is no more than 2.84.
As to ATSGYRIAY, the pKd was no more than 4.70 in assay [8]; 7.16 in [9]; 7.35 in assay [10]; no more than 4.70 in [11]; 5.78 in assay [12]; no more than 4.70 in assay [13] (source organism: Giardia lamblia ATCC 50803). This sequence also showed a negative logarithm of the Kd (pKd) in assay [14] of no more than 4.70.
Consider PWLTEKEAM, for which the pIC50 in [15] is no more than 3.67; in assay [7] (setting [25]) it was 6.36.
In the case of FYSQESPQSY, the negative logarithm of the Kd (pKd) in assay [1] (setting [26]) is 6.12; in assay [2] (setting [26]), 5.53; in [3] (setting [26]), 6.42; in assay [4] (setting [26]) it was no more than 4.31; in assay [5] (setting [26]), 5.03; in [6] (setting [26]) it was 8.75.
Regarding ELLGYCVSLF, the negative logarithm of the Kd (pKd) in [1] (setting [27]) was 5.44; in assay [2] (setting [27]), 4.76; in [3] (setting [27]), 6.50; in assay [4] (setting [27]), 5.73; in assay [5] (setting [27]), 4.96; in assay [6] (setting [27]) it was 5.03.
HEHDQIGDI gave a pIC50 in assay [7] (source organism: Variola virus) of 4.62.
With KIDQIIHDF, the values for the pIC50 in assay [15] and in [7] (setting [25]) were 4.18 and 4.33, respectively.
Regarding IMVGNETGL, the negative logarithm of the Kd (pKd) in assay [16] (setting [28]) was 5.38.
In [7] (source organism: Variola virus), VHEHDQIGD had a negative logarithm of the IC50 (pIC50) of 5.73.
For GTDPYRPSF, the negative logarithm of the Kd (pKd) in assay [1] (setting [29]) was 5.15; in assay [2] (setting [29]), 5.28; in assay [3] (setting [29]), no more than 4.11; in [4] (setting [29]), no more than 4.52; in [5] (setting [29]) it was 5.61; in assay [6] (setting [29]), 4.96.
Turning to IMKNHLRDI, the pKd in assay [16] (setting [28]) was 4.90.
For the sequence QLVKGFERFQ, in [17] (source organism: Variola virus), the negative-log Kd (pKd) was 6.20.
Take FLNISWFYI: the negative-log Kd (pKd) is 10.85 in assay [16] (source organism: Vaccinia virus WR), 9.18 in assay [18] and 8.96 in assay [19].
For the sequence LMTLKDAML, in assay [16] (setting [28]), the pKd was 6.05.
Regarding SIVSPFIPLL, the pKd in [16] (source organism: Hepatitis B virus) was no more than 4.60.
On to LAVSGVYPL, for which, in assay [20], the pKd is 7.08.
For KRTLAAMPE, in assay [7] (setting [25]), the pIC50 was 4.37.
Take TMYYKDVTV: the pKd in assay [16] (source organism: Human alphaherpesvirus 1 strain 17) is 7.60.
FHNDSTPRY: the negative-log Kd (pKd) in assay [21] was 5.46.
Turning to DAYRRIHSL, the results for the pKd in [22] and in [13] (source organism: Homo sapiens) were 6.92 and 4.78, respectively.
Sequence LLGPVIGML had a pKd in [17] (source organism: Escherichia coli 536) of 8.47.
As for FVNFNSVKNL, the negative-log Kd (pKd) is 5.69 in assay [23], 5.66 in [18], 6.50 in assay [19] and 6.31 in [17] (source organism: Vaccinia virus L-IPV).
In assay [7] (setting [25]), VYQVNNLEE showed a negative-log IC50 (pIC50) of no more than 3.60.
The same measure, in the same setting: next, SKSTDFLDP: no more than 3.23.
